The results in this text go back to PMC9105384, “Ethyl Gallate Dual-Targeting PTPN6 and PPARγ Shows Anti-Diabetic and Anti-Obese Effects” (International Journal of Molecular Sciences, 2022).

The labels stand for the following.
B1: SSH2 (Homo sapiens) (protein)
chain: MALVTVQRSPTPSTTSSPCASEADSGEEECRSQPRSISESFLTVKGAALFLPRGNGSSTPRISHRRNKHAGDLQQHLQAMFILLRPEDNIRLAVRLESTYQNRTRYMVVVSTNGRQDTEESIVLGMDFSSNDSSTCTMGLVLPLWSDTLIHLDGDGGFSVSTDNRVHIFKPVSVQAMWSALQSLHKACEVARAHNYYPGSLFLTWVSYYESHINSDQSSVNEWNAMQDVQSHRPDSPALFTDIPTERERTERLIKTKLREIMMQKDLENITSKEIRTELEMQMVCNLREFKEFIDNEMIVILGQMDSPTQIFEHVFLGSEWNASNLEDLQNRGVRYILNVTREIDNFFPGVFEYHNIRVYDEEATDLLAYWNDTYKFISKAKKHGSKCLVHCKMGVSRSASTVIAYAMKEYGWNLDRAYDYVKERRTVTKPNPSFMRQLEEYQGILLASKQRHNKLWRSHSDSDLSDHHEPICKPGLELNKKDITTSADQIAEVKTMESHPPIPPVFVEHMVPQDANQKGLCTKERMICLEFTSREFHAGQIEDELNLNDINGCSSGCCLNESKFPLDNCHASKALIQPGHVPEMANKFPDLTVEDLETDALKADMNVHLLPMEELTSPLKDPPMSPDPESPSPQPSCQTEISDFSTDRIDFFSALEKFVELSQETRSRSFSHSRMEELGGGRNESCRLSVVEVAPSKVTADDQRSSSLSNTPHASEESSMDEEQSKAISELVSPDIFMQSHSENAISVKEIVTEIESISQGVGQIQLKGDILPNPCHTPKKNSIHELLLERAQTPENKPGHMEQDEDSCTAQPELAKDSGMCNPEGCLTTHSSIADLEEGEPAEGEQELQGSGMHPGAKWYPGSVRRATLEFEERLRQEQEHHGAAPTCTSLSTRKNSKNDSSVADLAPKGKSDEAPPEHSFVLKEPEMSKGKGKYSGSEAGSLSHSEQNATVPAPRVLEFDHLPDPQEGPGSDTGTQQEGVLKDLRTVIPYQESETQAVPLPLPKRVEIIEYTHIVTSPNHTGPGSEIATSEKSGEQGLRKVNMEKSVTVLCTLDENLNRTLDPNQVSLHPQVLPLPHSSSPEHNRPTDHPTSILSSPEDRGSSLSTALETAAPFVSHTTHLLSASLDYLHPQTMVHLEGFTEQSSTTDEPSAEQVSWEESQESPLSSGSEVPYKDSQLSSADLSLISKLGDNTGELQEKMDPLPVACRLPHSSSSENIKSLSHSPGVVKERAKEIESRVVFQAGLTKPSQMRRSASLAKLGYLDLCKDCLPEREPASCESPHLKLLQPFLRTDSGMHAMEDQESLENPGAPHNPEPTKSFVEQLTTTECIVQSKPVERPLVQYAKEFGSSQQYLLPRAGLELTSSEGGLPVLQTQGLQCACPAPGLAVAPRQQHGRTHPLRRLKKANDKKRTTNPFYNTM
B2: PTPN9 (Homo sapiens) (protein)
chain: MEPATAPRPDMAPELTPEEEQATKQFLEEINKWTVQYNVSPLSWNVAVKFLMARKFDVLRAIELFHSYRETRRKEGIVKLKPHEEPLRSEILSGKFTILNVRDPTGASIALFTARLHHPHKSVQHVVLQALFYLLDRAVDSFETQRNGLVFIYDMCGSNYANFELDLGKKVLNLLKGAFPARLKKVLIVGAPIWFRVPYSIISLLLKDKVRERIQILKTSEVTQHLPRECLPENLGGYVKIDLATWNFQFLPQVNGHPDPFDEIILFSLPPALDWDSVHVPGPHAMTIQELVDYVNARQKQGIYEEYEDIRRENPVGTFHCSMSPGNLEKNRYGDVPCLDQTRVKLTKRSGHTQTDYINASFMDGYKQKNAYIGTQGPLENTYRDFWLMVWEQKVLVIVMTTRFEEGGRRKCGQYWPLEKDSRIRFGFLTVTNLGVENMNHYKKTTLEIHNTEERQKRQVTHFQFLSWPDYGVPSSAASLIDFLRVVRNQQSLAVSNMGARSKGQCPEPPIVVHCSAGIGRTGTFCSLDICLAQLEELGTLNVFQTVSRMRTQRAFSIQTPEQYYFCYKAILEFAEKEGMVSSGQNLLAVESQ
B3: PTPN7 (Homo sapiens) (protein)
chain: MVQAHGGRSRAQPLTLSLGAAMTQPPPEKTPAKKHVRLQERRGSNVALMLDVRSLGAVEPICSVNTPREVTLHFLRTAGHPLTRWALQRQPPSPKQLEEEFLKIPSNFVSPEDLDIPGHASKDRYKTILPNPQSRVCLGRAQSQEDGDYINANYIRGYDGKEKVYIATQGPMPNTVSDFWEMVWQEEVSLIVMLTQLREGKEKCVHYWPTEEETYGPFQIRIQDMKECPEYTVRQLTIQYQEERRSVKHILFSAWPDHQTPESAGPLLRLVAEVEESPETAAHPGPIVVHCSAGIGRTGCFIATRIGCQQLKARGEVDILGIVCQLRLDRGGMIQTAEQYQFLHHTLALYAGQLPEEPSP
B4: PTPN3 (Homo sapiens) (protein)
chain: MTSRLRALGGRINNIRTSELPKEKTRSEVICSIHFLDGVVQTFKVTKQDTGQVLLDMVHNHLGVTEKEYFGLQHDDDSVDSPRWLEASKAIRKQLKGGFPCTLHFRVRFFIPDPNTLQQEQTRHLYFLQLKMDICEGRLTCPLNSAVVLASYAVQSHFGDYNSSIHHPGYLSDSHFIPDQNEDFLTKVESLHEQHSGLKQSEAESCYINIARTLDFYGVELHSGRDLHNLDLMIGIASAGVAVYRKYICTSFYPWVNILKISFKRKKFFIHQRQKQAESREHIVAFNMLNYRSCKNLWKSCVEHHTFFQAKKLLPQEKNVLSQYWTMGSRNTKKSVNNQYCKKVIGGMVWNPAMRRSLSVEHLETKSLPSRSPPITPNWRSPRLRHEIRKPRHSSADNLANEMTYITETEDVFYTYKGSLAPQDSDSEVSQNRSPHQESLSENNPAQSYLTQKSSSSVSPSSNAPGSCSPDGVDQQLLDDFHRVTKGGSTEDASQYYCDKNDNGDSYLVLIRITPDEDGKFGFNLKGGVDQKMPLVVSRINPESPADTCIPKLNEGDQIVLINGRDISEHTHDQVVMFIKASRESHSRELALVIRRRAVRSFADFKSEDELNQLFPEAIFPMCPEGGDTLEGSMAQLKKGLESGTVLIQFEQLYRKKPGLAITFAKLPQNLDKNRYKDVLPYDTTRVLLQGNEDYINASYVNMEIPAANLVNKYIATQGPLPHTCAQFWQVVWDQKLSLIVMLTTLTERGRTKCHQYWPDPPDVMNHGGFHIQCQSEDCTIAYVSREMLVTNTQTGEEHTVTHLQYVAWPDHGVPDDSSDFLEFVNYVRSLRVDSEPVLVHCSAGIGRTGVLVTMETAMCLTERNLPIYPLDIVRKMRDQRAMMVQTSSQYKFVCEAILRVYEEGLVQMLDPS
B5: PTPN2 (Homo sapiens) (protein)
chain: MPTTIEREFEELDTQRRWQPLYLEIRNESHDYPHRVAKFPENRNRNRYRDVSPYDHSRVKLQNAENDYINASLVDIEEAQRSYILTQGPLPNTCCHFWLMVWQQKTKAVVMLNRIVEKESVKCAQYWPTDDQEMLFKETGFSVKLLSEDVKSYYTVHLLQLENINSGETRTISHFHYTTWPDFGVPESPASFLNFLFKVRESGSLNPDHGPAVIHCSAGIGRSGTFSLVDTCLVLMEKGDDINIKQVLLNMRKYRMGLIQTPDQLRFSYMAIIEGAKCIKGDSSIQKRWKELSKEDLSPAFDHSPNKIMTEKYNGNRIGLEEEKLTGDRCTGLSSKMQDTMEENSESALRKRIREDRKATTAQKVQQMKQRLNENERKRKRWLYWQPILTKMGFMSVILVGAFVGWTLFFQQNAL

Substrate in this series: Cc1cc(=O)oc2c(F)c(OP(=O)(O)O)c(F)cc12
Kind of series: purified protein, by the assay type. Set-up: DiFMUP hydrolysis by purified PTPs, fluorescence Ex355/Em460, initial rates over 10 min; Michaelis-Menten and Lineweaver-Burk Km. On the procedure:
The enzymatic activity of each PTP was evaluated using 6,8-difluoro-4-methylumbelliferyl phosphate (DiFMUP) as the surrogate substrate. To reach within the range of the initial rate (v0) during the measurement for 10 min, the pH and concentration of each PTP were optimized and are listed in Table S3. To determine the Km values, each PTP with optimized concentration was added to the reaction buffer (20 mM Bis-Tris at pH 6.0 or Tris at pH 7.0 and 8.0, 150 mM NaCl, 2.5 mM dithiothreitol (DTT), 0.01% Triton X-100) containing various concentrations of DiFMUP to obtain a final volume of 100 μL in a 96-well plate. Fluorescence intensities were measured once every minute for a complete 10 min duration using a Victor™ X4 Multilabel Plate Reader (Perkin Elmer, Waltham, MA, USA) at excitation/emission = 355 nm/460 nm. The initial rates of the reaction were determined using a previously described procedure for calculating the amount of product formation. To screen a library of 1033 natural products (Chengdu Biopurify Phytochemicals Ltd., Chengdu, China) against 20 PTPs, each PTP with an optimized concentration was added to the reaction buffer with an optimized pH containing DiFMUP (2 × Km for each PTP) after adding each compound (20 μM). […] The IC50 values were estimated using a sigmoid plot in GraphPad Prism 5 software (GraphPad Software Inc., San Diego, CA, USA). The Hill coefficient (nH), the degree of cooperativity, was calculated according to a previously published method. To determine the inhibition constant (Ki) and identify the inhibition mode of EG, various concentrations of EG (2.5, 5, 10, and 20 μM) were assayed with various concentrations of DiFMUP (260, 130, 65, and 32.5 μM). Kinetic parameters were obtained using Dixon plots for Ki and Lineweaver-Burk plots for the inhibition mode.
With B1, the Km (as a rule, the substrate concentration at which the rate is half of its maximum) is 215.3 µM.
Consider B2, for which the Km was 110 µM.
For B3 the value was 25.5 µM; for B4, 2.0 µM.
For B5, the Km was 20.0 µM.
